Results as given in the supplement of paper PMC7877785.
± gives the uncertainty stated by the source.

Assay: self-splicing fitness, log relative to wild type (ln ratio); higher = more splicing; Tetrahymena group I intron in knt gene, E. coli kanamycin selection, DiMSum; sequences stand for … in CUCUCU…GGAGGGAAAAGUUAUCAGGCAUGCACCUGGUAGCUAGUCUUUAAACCAAUAGAUUGCAUCGGUUUAAAAGGCAAGACCGUCAAAUUGCGGGAAAGGGGUCAACAGCCGUUCAGUACCAAGUCUCAGGGGAAACUUUGAGAUGGCCUUGCAAAGGGUAUGGUAAUAAGCUGACGGACAUGGUCCUAACCACGCAGCCAAGUCCUAAGUCAACAGAUCUUCUGUUGAUAUGGAUGCAGUUCACAGACUAAAUGUCGGUCGGGGAAGAUGUAUUCUUCUCAUAAGAUAUAGUCGGACCUCUCCUUAAUGGGAGCUAGCGGAUGAAGUGAUGCAACACUGGAGCCGCUGGGAACUAAUUUGUAUGCGAAAGUAUAUUGAUUAGUUUUGGAGUACUCGUGGUCG
Summary of the method: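 Pooled colonies went to amplicon sequencing on an Illumina HiSeq 2500 after six replicate transformations. The plates were LB agar with 100 μg/mL carbenicillin, 50 μM IPTG and 0.2% rhamnose, with or without 25 μg/mL kanamycin, incubated overnight at 37°C or 30°C. The E. coli BL21(DE3) library had all eight P1ex-region intron nucleotides randomised, the intron placed in the knt kanamycin-resistance gene on pET-22b(+). DiMSum fitness is the error-weighted combination of replicate fold changes, kanamycin against none, normalised to wild type.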

Sequence | self-splicing fitness (ln) (30 °C) | self-splicing fitness (ln) (37 °C)
UUUAAGCAAUAUUACGCUCA | -0.755 ± 0.15 | -0.395 ± 0.17
GACGAGCAAUAUUACGACCU | -2.01 ± 0.15 | 0.0378 ± 0.16
CGUUAGCAAUAUUACGGCAU | -2.01 ± 0.11 | -1.13 ± 0.12
GACAAGCAAUAUUACGGGGC | -3.36 ± 0.18 | -2.81 ± 0.23
CCGAAGCAAUAUUACGAGUG | -0.855 ± 0.049 | -0.0149 ± 0.062
CUCCAGCAAUAUUACGGGUG | -2.79 ± 0.097 | -1.53 ± 0.088
GAUCAGCAAUAUUACGGUCC | -3.7 ± 0.33 | –
CCCAAGCAAUAUUACGGUAC | -4.14 ± 0.23 | -2.71 ± 0.17
GUCCAGCAAUAUUACGCUUA | -0.882 ± 0.067 | -0.314 ± 0.07
UCAAAGCAAUAUUACGUGAU | -3.95 ± 0.17 | -2.64 ± 0.21
UGUUAGCAAUAUUACGAGUC | -4.22 ± 0.42 | –
UAACAGCAAUAUUACGGGAA | -1.76 ± 0.13 | -1.35 ± 0.11
AACUAGCAAUAUUACGCGCU | -1.79 ± 0.12 | -0.454 ± 0.12
CGCCAGCAAUAUUACGGGCA | -0.258 ± 0.095 | 0.189 ± 0.095
CUUGAGCAAUAUUACGCGUA | -3.18 ± 0.35 | -2.31 ± 0.27
CUUAAGCAAUAUUACGUGUU | -4.03 ± 0.15 | -2.66 ± 0.15
UCUGAGCAAUAUUACGCGUG | -2.36 ± 0.16 | -0.768 ± 0.11
CCUUAGCAAUAUUACGGAUA | -2.98 ± 0.29 | -1.92 ± 0.37
CAAUAGCAAUAUUACGCGCG | -0.577 ± 0.094 | -0.206 ± 0.1
UAAGAGCAAUAUUACGGAAC | -2.54 ± 0.33 | -3.2 ± 0.46

Sequence | self-splicing fitness (ln) (30 °C) | self-splicing fitness (ln) (37 °C)
AUAGAGCAAUAUUACGUACC | -3.3 ± 0.16 | -1.3 ± 0.15
AUUGAGCAAUAUUACGAUGG | -2.84 ± 0.25 | –
GAGCAGCAAUAUUACGCUCU | -3.46 ± 0.28 | –
UCGUAGCAAUAUUACGAGAG | -4.38 ± 0.46 | -1.89 ± 0.25
UUCCAGCAAUAUUACGCGAC | -3.35 ± 0.24 | -0.902 ± 0.19
GUGCAGCAAUAUUACGCCUU | -1.26 ± 0.16 | -0.215 ± 0.14
GACGAGCAAUAUUACGAAGA | -3.31 ± 0.27 | –
UCUUAGCAAUAUUACGCGUA | -3.4 ± 0.24 | -1.38 ± 0.15
AGUUAGCAAUAUUACGCCCC | -0.473 ± 0.23 | –
UCAUAGCAAUAUUACGGAGC | -2.3 ± 0.29 | -3.14 ± 0.4
CUGGAGCAAUAUUACGGAUG | -1.12 ± 0.16 | -0.927 ± 0.14
GUCCAGCAAUAUUACGGCCG | -3.67 ± 0.24 | -2.69 ± 0.19
UGUCAGCAAUAUUACGACGG | -1.06 ± 0.076 | -0.98 ± 0.092
GAAGAGCAAUAUUACGUAAU | -3.03 ± 0.2 | -1.22 ± 0.23
GAUAAGCAAUAUUACGCCUC | – | -2.35 ± 0.42
ACAUAGCAAUAUUACGCUCU | -0.768 ± 0.084 | -0.2 ± 0.12
AUGCAGCAAUAUUACGGCAG | -0.985 ± 0.11 | -1.29 ± 0.15
UCCAAGCAAUAUUACGGGGU | -2.76 ± 0.11 | -1.96 ± 0.13
UUACAGCAAUAUUACGUUCU | -1.6 ± 0.13 | -1.01 ± 0.11
ACUCAGCAAUAUUACGGUUG | -4.32 ± 0.17 | -2.77 ± 0.18
